According to patent publication US20230265151A1, “GIP/GLP1 CO-AGONIST COMPOUNDS” (priority 2020, published 2023):
Substitutions are numbered along the chain they refer to.

T1: human glucose-dependent insulinotropic polypeptide (GIP) receptor (human, UniProt P48546 22-466)
T1 sequence (looked up): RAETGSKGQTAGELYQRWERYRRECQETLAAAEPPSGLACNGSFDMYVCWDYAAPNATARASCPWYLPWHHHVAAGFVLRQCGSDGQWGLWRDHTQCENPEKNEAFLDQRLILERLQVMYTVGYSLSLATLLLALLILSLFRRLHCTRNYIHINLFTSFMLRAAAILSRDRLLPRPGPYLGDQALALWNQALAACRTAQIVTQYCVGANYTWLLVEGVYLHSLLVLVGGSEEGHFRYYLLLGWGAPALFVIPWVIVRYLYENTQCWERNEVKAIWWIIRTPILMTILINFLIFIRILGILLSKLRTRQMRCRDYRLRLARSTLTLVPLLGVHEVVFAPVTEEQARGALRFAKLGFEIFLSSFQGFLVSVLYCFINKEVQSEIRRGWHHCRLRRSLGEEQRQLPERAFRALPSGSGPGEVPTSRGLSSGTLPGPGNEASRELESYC

B1: Example 290 (peptide)
peptide: YXEGTXTSDXSIXLDXKAQXEFIXXLIKGGPSSGAPPPS
modifications: Aib2, αMeF(2F)6, OMeY10, αMeL13, Orn16, K17(Z), Aib20, D-Glu24, αMeY25, K28(Z), C-terminal NH2; Z = AEEA2-(γ-Glu)-CO-(CH2)10-CH3
B2: Example 287 (peptide)
peptide: B1 peptide with K17I, E21K
modifications: Aib2, αMeF(2F)6, 4Pal10, αMeL13, Orn16, Aib20, K21(Z), D-Glu24, αMeY25, K28(Z), C-terminal NH2; Z = AEEA2-(γ-Glu)-(11-(4-carboxyphenoxy)undecanoyl)
B3: Example 170 (peptide)
peptide: B1 peptide with K28E, P31K
modifications: Aib2, αMeF(2F)6, 4Pal10, αMeL13, Orn16, K17(Z), Ac5c20, D-Glu24, αMeY25, K31(Z), C-terminal NH2; Z = AEEA2-(γ-Glu)-CO-(CH2)12-CO2H
B4: Example 174 (peptide)
peptide: B1 peptide with F22X, K28E, P31K
modifications: Aib2, αMeF6, 4Pal10, αMeL13, Orn16, K17(Z), Aib20, αMeF22, D-Glu24, αMeF25, K31(Z), C-terminal NH2; Z = AEEA2-(γ-Glu)-CO-(CH2)10-CH3
B5: Example 161 (peptide)
peptide: B1 peptide with X24K, K28E
modifications: Aib2, aMeF(2F)6, 4Pal10, aMeL13, Orn16, K17(Z), Aib20, K24(Z), αMeY25, C-terminal NH2; Z = eK-gE-C14_OH (so in the source)
B6: Example 197 (peptide)
peptide: B1 peptide with K17I, X24K, K28E, P31K
modifications: Aib2, αMeF(2F)6, 4Pal10, αMeL13, Orn16, Aib20, K24(Z), αMeY25, K31(Z), C-terminal NH2; Z = (εK)-(γ-Glu)-CO-(CH2)12-CO2H
B7: Example 282 (peptide)
peptide: B1 peptide
modifications: Aib2, αMeF(2F)6, 2Nal10, αMeL13, Orn16, K17(Z), Aib20, D-Glu24, αMeY25, K28(Z), C-terminal NH2; Z = AEEA2-(γ-Glu)-(10-(4-carboxyphenoxy)decanoyl)
B8: Example 173 (peptide)
peptide: B1 peptide with F22X, K28E, P31K
modifications: Aib2, αMeF6, 4Pal10, αMeL13, Orn16, K17(Z), Aib20, αMeF22, D-Glu24, αMeY25, K31(Z), C-terminal NH2; Z = AEEA2-(γ-Glu)-CO-(CH2)10-CH3
B9: Example 181 (peptide)
peptide: B1 peptide with X10V, X24K, K28E
modifications: Aib2, αMeF6, αMeL13, Orn16, K17(Z), Aib20, K24(Z), αMeY25, C-terminal NH2; Z = AEEA2-(γ-Glu)-CO-(CH2)12-CO2H
B10: Example 179 (peptide)
peptide: B1 peptide with X10V, K28E, P31K
modifications: Aib2, αMeF6, αMeL13, Orn16, K17(Z), Aib20, D-Glu24, αMeY25, K31(Z), C-terminal NH2; Z = AEEA2-(γ-Glu)-CO-(CH2)12-CO2H
B11: Example 191 (peptide)
peptide: B1 peptide with K17I, E21K, X24K, K28E
modifications: Aib2, αMeF(2F)6, 4Pal10, αMeL13, Orn16, Aib20, K21(Z), K24(Z), αMeY25, C-terminal NH2; Z = AEEA2-CO-(CH2)12-CO2H
B12: Example 286 (peptide)
peptide: B1 peptide with K17I, X24K
modifications: Aib2, αMeF(2F)6, 4Pal10, αMeL13, Orn16, Aib20, K24(Z), αMeY25, K28(Z), C-terminal NH2; Z = AEEA2-(γ-Glu)-(11-(4-carboxyphenoxy)undecanoyl)
B13: Example 195 (peptide)
peptide: B1 peptide with K17I, E21K, K28E, P31K
modifications: not fully specified; Aib2, αMeF(2F)6, 4Pal10, αMeL13, Orn16, Aib20, K21(AEEA2-CO-(CH2)12-CO2H), D-Glu24, αMeY25, K31(AEEA2-CO-(CH2)2-CO2H as printed), C-terminal NH2
B14: Example 160 (peptide)
peptide: B1 peptide with X24K, K28E
modifications: Aib2, αMeF(2F)6, 4Pal10, αMeL13, Orn16, K17(Z), Aib20, K24(Z), αMeY25, C-terminal NH2; Z = AEEA2-(εK)-CO-(CH2)12-CO2H
B15: Example 285 (peptide)
peptide: YXEGTXTSDXSIXLDXKAQXEFIXXLIEGGPSSGAPPPSK
modifications: Aib2, αMeF(2F)6, 4Pal10, αMeL13, Orn16, K17(Z), Aib20, D-Glu24, αMeY25, K40(Z), C-terminal NH2; Z = AEEA2-(γ-Glu)-(11-(4-carboxyphenoxy)undecanoyl)
B16: Example 194 (peptide)
peptide: B15 peptide with K17I, X24K
modifications: Aib2, αMeF(2F)6, 4Pal10, αMeL13, Orn16, Aib20, K24(Z), αMeY25, K40(Z), C-terminal NH2; Z = AEEA2-CO-(CH2)12-CO2H
B17: Example 288 (peptide)
peptide: B15 peptide with K17I, E21K
modifications: Aib2, αMeF(2F)6, 4Pal10, αMeL13, Orn16, Aib20, K21(Z), D-Glu24, αMeY25, K40(Z), C-terminal NH2; Z = AEEA2-(γ-Glu)-(11-(4-carboxyphenoxy)undecanoyl)
B18: Example 196 (peptide)
peptide: B15 peptide with K17I, E21K
modifications: Aib2, αMeF(2F)6, 4Pal10, αMeL13, Orn16, Aib20, K21(Z), D-Glu24, αMeY25, K40(Z), C-terminal NH2; Z = AEEA2-CO-(CH2)12-CO2H

Each binder was assayed against human glucagon-like peptide-1 (GLP-1) receptor (human, UniProt P43220 24-463) (assay: cell-based or functional assay).

| Binder | cAMP EC50 | cAMP Emax |
| --- | --- | --- |
| B1 | 0.324 nM | – |
| B2 | 0.563 nM | – |
| B3 | 1.03 nM | – |
| B4 | 0.33 nM | 98.2% |
| B5 | 0.203 nM | – |
| B6 | 0.336 nM | – |
| B7 | 0.216 nM | – |
| B8 | 0.343 nM | 89.9% |
| B9 | 0.182 nM | – |
| B10 | 0.461 nM | 99% |
| B11 | 0.926 nM | 98.6% |
| B12 | 0.678 nM | – |
| B13 | 0.343 nM | – |
| B14 | 0.228 nM | – |
| B15 | 1.21 nM | – |
| B16 | 0.317 nM | 103% |
| B17 | 0.354 nM | – |
| B18 | 0.356 nM | – |

These binders were tested against human glucagon receptor (human, UniProt P47871 26-477) (assay: cell-based or functional assay).

| Binder | cAMP EC50 |
| --- | --- |
| B1 | > 9.95 µM |
| B2 | > 9.95 µM |
| B3 | > 9.95 µM |
| B4 | > 9.95 µM |
| B5 | > 9.95 µM |
| B6 | > 9.95 µM |
| B7 | > 9.95 µM |
| B8 | > 9.95 µM |
| B9 | > 9.95 µM |
| B10 | > 9.95 µM |
| B11 | > 9.95 µM |
| B12 | > 9.95 µM |
| B13 | > 9.95 µM |
| B14 | > 9.95 µM |
| B15 | > 9.95 µM |
| B16 | > 9.95 µM |
| B17 | > 9.95 µM |
| B18 | > 9.95 µM |

The binders below were run against T1, human glucose-dependent insulinotropic … (assay: cell-based or functional assay).

| Binder | cAMP EC50 | cAMP Emax |
| --- | --- | --- |
| B1 | 0.0188 nM | – |
| B2 | 0.0189 nM | – |
| B3 | 0.0244 nM | – |
| B4 | 0.0284 nM | 92.2% |
| B5 | 0.0207 nM | – |
| B6 | 0.0338 nM | 102% |
| B7 | 0.0193 nM | – |
| B8 | 0.0155 nM | 87.8% |
| B9 | 0.154 nM | 94.6% |
| B10 | 0.15 nM | 91% |
| B11 | 0.0601 nM | 90% |
| B12 | 0.0344 nM | – |
| B13 | 0.0219 nM | 88.5% |
| B14 | 0.0197 nM | – |
| B15 | 0.0115 nM | – |
| B16 | 0.0233 nM | 93.1% |
| B17 | 0.0219 nM | – |
| B18 | 0.0232 nM | – |
